Values belong to the binder of their own block, whether it stands above or below them.
What was measured:
[1] = biological target: T1, human CLDN6 (human, UniProt P56747 1-220); test: FACS on HEK293T-CLDN6 cells
T1 construct: whole, on cells; four-transmembrane protein; also called claudin-6; HEK293T-CLDN6
T1 sequence (looked up): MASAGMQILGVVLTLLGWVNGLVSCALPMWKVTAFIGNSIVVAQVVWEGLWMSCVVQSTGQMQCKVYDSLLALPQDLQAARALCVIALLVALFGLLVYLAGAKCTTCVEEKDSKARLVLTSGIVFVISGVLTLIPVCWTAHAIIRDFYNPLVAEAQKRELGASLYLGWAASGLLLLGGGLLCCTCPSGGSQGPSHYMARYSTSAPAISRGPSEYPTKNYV
Protocol: (§1) To detect a binding capacity of a chimeric or humanized antibody to CLDN6, a CLDN6-expressing cell line HEK293T-CLDN6 and a CLDN6-negative control cell line HEK293T were washed three times with PBS. 1×10⁵ test cells and 50 μL of an antibody solution to be tested were added to a 96-well plate, and incubated at 4° C. for 1 h. The cells were then washed three times with PBS. […] Finally, cells were washed three times with PBS, and signals were read using FACS.
(§2) An EC50 value (a concentration of an antibody that binds to half of binding sites at equilibrium) is calculated through nonlinear regression.

[2] = biological target: T1, human CLDN6; test: FACS on PA-1 tumour cells; target on the cells taken as CLDN6
Protocol: (§3) 50 μL of an antibody to be tested was added to a 96-well plate, then 1×10⁵ cells were added to each well, and incubation was conducted at 4° C. for 1 h. Cells were washed three times with PBS. […] Finally, cells were washed three times with PBS, and signals were read using FACS. A binding capacity of the antibody to each tumor cell was analyzed based on detection data.

[3] = biological target: T1, human CLDN6; test: FACS on HepG2 tumour cells; target on the cells taken as CLDN6
Protocol: as §3

[4] = biological target: T1, human CLDN6; test: FACS on HepG2 tumour cells, 5 µg/mL; target on the cells taken as CLDN6
Protocol: as §3

[5] = biological target: T1, human CLDN6; test: FACS on HepG2 tumour cells; target on the cells taken as CLDN6; remark: listed apart in the source
Protocol: as §3

[6] = biological target: T1, human CLDN6; test: FACS on HEK293T-CLDN6 cells; remark: listed apart in the source
Protocol: as §1, §2

[7] = biological target: T2, monkey CLDN6 (Cyno CLDN6) (monkey (Cyno)); test: FACS on CHO-K1-Cyno CLDN6 cells
T2 construct: whole, on cells; also called CHO-K1-Cyno CLDN6

[8] = biological target: T3, human CLDN4 (human, UniProt O14493 1-209); test: FACS on 293T-CLDN4 cells, 10 µg/mL
T3 construct: whole, on cells; also called HEK293T-CLDN4
T3 sequence (looked up): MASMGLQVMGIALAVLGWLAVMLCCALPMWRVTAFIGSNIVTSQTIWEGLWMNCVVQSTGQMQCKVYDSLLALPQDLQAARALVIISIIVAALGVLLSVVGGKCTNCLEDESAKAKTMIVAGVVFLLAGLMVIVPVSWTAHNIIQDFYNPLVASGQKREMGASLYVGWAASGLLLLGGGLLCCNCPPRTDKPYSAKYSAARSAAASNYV
Protocol: as §3, with “1× 10⁵” for “1×10⁵”, “Binding capacities” for “A binding capacity”, “CLDN9, CLDN3, and CLDN4 were” for “each tumor cell was”, “analyzed separately” for “analyzed”

[9] = biological target: T1, human CLDN6; test: FACS on 293T-CLDN6 cells, 10 µg/mL
[10] = biological target: T4, human CLDN9 (human, UniProt O95484 1-217); test: FACS on 293T-CLDN9 cells, 10 µg/mL
T4 construct: whole, on cells; also called HEK293T-CLDN9
T4 sequence (looked up): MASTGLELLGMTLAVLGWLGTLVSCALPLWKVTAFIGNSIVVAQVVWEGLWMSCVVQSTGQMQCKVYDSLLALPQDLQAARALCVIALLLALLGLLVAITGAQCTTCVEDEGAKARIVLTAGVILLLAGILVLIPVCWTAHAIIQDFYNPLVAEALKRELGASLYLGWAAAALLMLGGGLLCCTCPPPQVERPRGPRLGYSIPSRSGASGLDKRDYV
Protocol: as §3, with “1× 10⁵” for “1×10⁵”, “Binding capacities” for “A binding capacity”, “CLDN9, CLDN3, and CLDN4 were” for “each tumor cell was”, “analyzed separately” for “analyzed”

[11] = biological target: T1, human CLDN6; test: ratio of FACS signals on CLDN6 cells over CLDN9 cells
Protocol: as §3, with “1× 10⁵” for “1×10⁵”, “Binding capacities” for “A binding capacity”, “CLDN9, CLDN3, and CLDN4 were” for “each tumor cell was”, “analyzed separately” for “analyzed”

[12] = biological target: T1, human CLDN6; test: FACS on PA-1 tumour cells; target on the cells taken as CLDN6; remark: listed apart in the source
Protocol: The specific binding of a chimeric antibody to a tumor cell was detected by FACS, and an EC50 value was calculated accordingly to evaluate an inhibitory effect of the chimeric antibody on the tumor cell.
as §3

[13] = biological target: T1, human CLDN6; test: ratio of FACS Geom.Mean on 293T-CLDN6 over 293T-CLDN9, 10 µg/mL
Protocol: as §3, with “1× 10⁵” for “1×10⁵”, “Binding capacities” for “A binding capacity”, “CLDN9, CLDN3, and CLDN4 were” for “each tumor cell was”, “analyzed separately” for “analyzed”

- EC50 [5]: 5.84 µg/mL
B2: PiH2006 (antibody, human IgG1, kappa, V domains shown)
VH: QVQLVQSGAEVKKPGASVKVSCKASGYTFTDYNMHWVRQAPGQRLEWIGYINPNNGATNYNQKFKGRVTITVDTSASTAYMELSSLRSEDTAVYNCARWDGYVYYYGMDYWGQGTLVTVSS
VL: DIQMTQSPSSLSASVGGRVTITCKASDHINNWLAWYQQKPGKAPKLLISGATSLETGVPSRFSGSGSGTDYTFTISSLQPEDIATYYCQQYWNTPYTFGGGTKLEIKR
notes: humanized from 54B5A7; IgG1; also called 54-VH2 + VL4

- EC50 [6]: 0.135 µg/mL
- EC50 [7]: 0.16 µg/mL
- Geom.Mean [8]: 8440
- Geom.Mean [9]: 33800
- Geom.Mean [10]: 731
- CLDN6/CLDN9 signal ratio [11]: ~50 fold
- EC50 [12]: 0.232 µg/mL
- CLDN6/CLDN9 ratio [13]: 46
B4: 58G3C7 (antibody, human IgG1, kappa, V domains shown)
VH: EVQLVESGGGLVKPGGSLKLSCAASGFTFSNYAMSWVRQTPEKRLEWVATISDGGSYTSYPDNIKGRFTISRDNAKNNLYLQVTHLKSEDTAMYYCARDAILITTAGFAYWGQGTLLTVSA
VL: DIQMTQSSSSFSVSLGDRVTITCKASEDIYNRLAWYQQKPGNAPRLLISATTSLETGVPSRFSGSGSGKDYTLSITSLQTEDVATYYCQQYWSFPRTFGGGTKLEVKR
notes: chimeric: murine variable regions on human IgG1 constant regions

The remaining lines, values behind:

B1: PiH1004 (antibody, human IgG1, kappa, V domains shown)
VH: QVQLVQSGAEVKKPGASVKVSCKASGYTFTDYNMHWVRQAPGQSLEWIGYVNPNNGATSYNQKFKGRATMTVDKSTSTVYMELSSLRSEDTAVYNCARWDGYVYYYGLDYWGQGTLVTVSS
VL: DIQMTQSPSSLSASVGDRVTITCKASDHINNWLAWYQQKPGKVPKLLISGATSLETGVPSRFSGSGSGTDYTLTISSLQPEDVATYYCQQYWSTPYTFGGGTKLEIKR
notes: humanized from 51C10H4; IgG1; also called 51-VH4 + VL3
- EC50 [1]: 0.363 µg/mL
- EC50 [2]: 0.491 µg/mL
- EC50 [3]: 0.843 µg/mL
- Geom.Mean [4]: 851

B3: PiH1004-M1 (antibody, human IgG1, kappa, V domains shown)
VH: QVQLVQSGAEVKKPGASVKVSCKASGYTFTDYNMHWVRQAPGQSLEWIGYVNPNNAATSYNQKFKGRATMTVDKSTSTVYMELSSLRSEDTAVYNCARWDGYVYYYGLDYWGQGTLVTVSS
VL: DIQMTQSPSSLSASVGDRVTITCKASDHINNWLAWYQQKPGKVPKLLISGATSLETGVPSRFSGSGSGTDYTLTISSLQPEDVATYYCQQYWSTPYTFGGGTKLEIKR
notes: PiH1004 with G of NG in heavy-chain CDR2 changed to A; also called improved antibody PiH1004-M1
- Geom.Mean [4]: 892
